The experiment concerns the target LS-Rg, chimeric protein of the extracellular domain of human L-selectin joined to the Fc domain of a human G2 immunoglobulin (human) (UniProt P14151). In words: competition of unlabeled antibody with radio-labeled 2'-F RNA ligand LF1807 for purified LS-Rg.

Chain of LS-Rg, chimeric protein of the extracellular domain of human L-selectin joined to the Fc domain of a human G2 immunoglobulin (human) (P14151 39-332, change not shown): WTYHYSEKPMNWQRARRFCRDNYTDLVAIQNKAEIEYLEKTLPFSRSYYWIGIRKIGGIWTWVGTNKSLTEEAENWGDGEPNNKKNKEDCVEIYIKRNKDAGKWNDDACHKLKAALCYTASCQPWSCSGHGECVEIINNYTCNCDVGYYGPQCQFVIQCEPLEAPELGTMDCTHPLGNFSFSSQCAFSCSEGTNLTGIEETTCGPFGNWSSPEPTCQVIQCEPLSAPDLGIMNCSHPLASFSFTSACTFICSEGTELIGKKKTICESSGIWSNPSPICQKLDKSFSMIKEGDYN

“DREG-56, blocking monoclonal anti-L-selectin antibody” showed a concentration giving complete inhibition of 300 nM.

Values taken from patent US20090118481A1.
